Measurements as given in patent US20080261241A1, “Targeted ubiquitination of proteins and screening methods using a new class of ubiquitin ligase proteins” (INSTITUT PASTEUR, priority 2007, published 2008).

B1: IpaH9.8: Shigella flexneri type III secretion effector protein (SEQ ID NO: 4), E3 ubiquitin ligase; used FLAG-tagged in yeast, GST-fused in vitro (protein, listed as Shigella flexneri)
chain: MLPINNNFSLPQNSFYNTISGTYADYFSAWDKWEKQALPGEERDEAVSRLKECLINNSDELRLDRLNLSSLPDNLPAQITLLNVSYNQLTNLPELPVTLKKLYSASNKLSELPVLPPALESLQVQHNELENLPALPDSLLTMNISYNEIVSLPSLPQALKNLRATRNFLTELPAFSEGNNPVVREYFFDRNQISHIPESILNLRNECSIHISDNPLSSHALQALQRLTSSPDYHGPRIYFSMSDGQQNTLHRPLADAVTAWFPENKQSDVSQIWHAFEHEEHANTFSAFLDRLSDTVSARNTSGFREQVAAWLEKLSASAELRQQSFAVAADATESCEDRVALTWNNLRKTLLVHQASEGLFDNDTGALLSLGREMFRLEILEDIARDKVRTLHFVDEIEVYLAFQTMLAEKLQLSTAVKEMRFYGVSGVTANDLRTAEAMVRSREENEFTDWFSLWGPWHAVLKRTEADRWAQAEEQKYEMLENEYPQRVADRLKASGLSGDADAEREAGAQVMRETEQQIYRQLTDEVLALRLSENGSQLHHS
modifications: FLAG tag or GST fusion
notes: used FLAG-tagged in yeast, GST-fused in vitro
B2: SspH1: Salmonella enterica Typhimurium homologue of IpaH, type III secretion effector; GST-SspH1 recombinant protein (protein)
chain: EFMLPINNNFSLPQNSFYNTISGTYADYFSAWDKWEKQALPGEERDEAVSRLKECLINNSDELRLDRLNLSSLPDNLPAQITLLNVSYNQLTNLPELPVTLKKLYSASNKLSELPVLPPALESLQVQHNELENLPALPDSLLTMNISYNEIVSLPSLPQALKNLRATRNFLTELPAFSEGNNPVVREYFFDRNQISHIPESILNLRNECSIHISDNPLSSHALQALQRLTSSPDYHGPRIYFSMSDGQQNTLHRPLADAVTAWFPENKQSDVSQIWHAFEHEEHANTFSAFLDRLSDTVSARNTSGFREQVAAWLEKLSASAELRQQSFAVAADATESCEDRVALTWNNLRKTLLVHQASEGLFDNDTGALLSLGREMFRLEILEDIARDKVRTLHFVDEIEVYLAFQTMLAEKLQLSTAVKEMRFYGVSGVTANDLRTAEAMVRSREENEFTDWFSLWGPWHAVLKRTEADRWAQAEEQKYEMLENEYPQRVADRLKASGLSGDADAEREAGAQVMRETEQQIYRQLTDEVLALRLFENGSQLHHS
modifications: left off: a dimerising Fc or GST

How the values were obtained:
[1] = system: pheromone response pathway downstream of Ste4; assay: Growth arrest by overproduction of Ste4; assay type: cell-based, Saccharomyces cerevisiae
[2] = system: pheromone response MAPK pathway; assay: Pheromone-responsive FUS1-lacZ reporter (β-galactosidase); assay type: cell-based, Saccharomyces cerevisiae; conditions: wild-type yeast, exposure to α-factor
Text: (§1) To gain insight to IpaH9.8 activity, Saccharomyces cerevisiae was employed as a surrogate model. […] Detection of mating pheromone by a G protein-coupled receptor activates an archetypal MAPK signalling cascade, inducing both arrest of the cell cycle and transcription of mating genes. The pheromone α-factor diffusing from a disk causes cell cycle arrest in […] cells, resulting in a halo of inhibited growth (Hoffman et al., 2002).
Invasive wild-type Shigella flexneri 5 M90T-Sm (Allaoui et al., 1992) and its mxiE derivative SF1060 (Mavris et al., 2002) were used for infection. Plasmids were propagated in Escherichia coli DH5α (end A1 hsdR17 sup E44 thi1 recA1 gyrA relA1 lacZYA-argF). To create JRY101, the integrating plasmid pFC23 (O'Rourke and Herskowitz, 1998) containing a FUS-lacZ transcriptional fusion was digested with SphI and transformed into BY4741; Leu+ colonies were tested for pheromone-responsive β-galactosidase production. JRY100 was constructed by PCR-mediated gene disruption in strain BY4741, replacing the entire open reading frame of UBP3 by the Nat marker, as described (Goldstein and McCusker, 1999; Longtine et al., 1998); the gene replacement was confirmed by PCR.
Standard media and techniques were used for transformation, maintenance, and growth of yeast (Guthrie C, 1991). […]

UbcH5B = target: T1, UbcH5B (Homo sapiens, UniProt P62837); assay: In vitro removal of ubiquitin from ubiquitinated E2; assay type: biochemical; conditions: biotinylated ubiquitin, E1, UbcH5B
T1 construct: His; made in house
T1 sequence (P62837 whole entry): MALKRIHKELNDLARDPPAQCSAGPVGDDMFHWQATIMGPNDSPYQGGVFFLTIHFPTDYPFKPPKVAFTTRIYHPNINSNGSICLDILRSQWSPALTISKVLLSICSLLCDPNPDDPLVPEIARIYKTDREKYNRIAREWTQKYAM
Method: The observation that the degradation of Ste7 promoted by IpaH9.8 is proteasome-dependent led us to test in vitro if IpaH9.8 might be involved in an ubiquitination pathway. It was discovered that the E2 enzyme UbcH5B was apparently not ubiquitinated by E1 in the presence of GST-IpaH9.8 (FIG. 2B).
(§2) Reactions were incubated at 37° C. for 1 h and stopped by the addition of an equal volume of Laemmli sample buffer (62.5 mM Tris-Hcl, pH 6.8, 10% glycerol, 2% SDS, 0.0005% bromophenol blue) containing, or not, 100 mM DTT. Ubiquitination reactions were carried out in the same manner except that 2 μg of HA-tagged ubiquitin, ubiquitin, ubiquitin-48R or […] were used instead of biotinylated ubiquitin. […] Reaction mixtures were separated by SDS/PAGE, transferred onto a nitrocellulose membrane and probed with specific antibodies or peroxidase-coupled streptavidin when biotinylated ubiquitin was used.

HA-tagged ubiquitin [3] = target: T2, HA-tagged ubiquitin (Homo sapiens, UniProt P0CG47); assay: In vitro polyubiquitination of ubiquitin; assay type: biochemical; conditions: HA-ubiquitin, E1, UbcH5B; anti-HA antibodies
T2 construct: multiples of the size of HA-ubiquitin (9 kDa); purchased Boston Biochem
Method: (§3) Ubiquitin biotinylated on Lys residues can not support polyubiquitination reactions. To test if IpaH9.8 could polyubiquitinate proteins, reactions were performed using HA-tagged ubiquitin, instead of biotinylated ubiquitin.
as §2

HA-tagged ubiquitin [4] = assay: In vitro polyubiquitination of ubiquitin; assay type: biochemical; conditions: K48R and K63R ubiquitin variants
Method: as §3, §2

MAPKK Ste7 = assay: Immunoblot of Ste7 amount in yeast; assay type: cell-based, Saccharomyces cerevisiae
sst2Δ cells = assay: Growth of sst2Δ yeast in the presence of pheromone; assay type: cell-based, Saccharomyces cerevisiae; conditions: galactose-induced production, α-factor plates
ubiquitin = target: T3, ubiquitin (Homo sapiens, UniProt P0CG47); assay: In vitro autoubiquitination; assay type: biochemical; conditions: E1, UbcH5B
T3 construct: UbcH7, E1, ubiquitin, HA-ubiquitin, biotinylated ubiquitin, ubiquitin-K48R and -K63R; purchased Boston Biochem
Method: The amide linkage, but not the thioesther linkage, of ubiquitin to ubiquitinated proteins is resistant to dithiothreitol (DTT).
(§4) Thus, IpaH9.8 is an E3 ubiquitin ligase for Ste7; the proteasome-dependent disappearance of Ste7 in yeast was likely due to the degradation of Ste7 following its polyubiquitination by IpaH9.8 and IpaH7.8.
as §2

Ste7 = target: T4, Ste7 (Saccharomyces cerevisiae, UniProt P06784); assay: In vitro ubiquitination of Ste7; assay type: biochemical; conditions: Ste7, Ste11-4, Kss1 complexes, native ubiquitin, E1, UbcH5B; anti-Ste7 antibodies
T4 construct: made in house
T4 sequence (P06784 1-515): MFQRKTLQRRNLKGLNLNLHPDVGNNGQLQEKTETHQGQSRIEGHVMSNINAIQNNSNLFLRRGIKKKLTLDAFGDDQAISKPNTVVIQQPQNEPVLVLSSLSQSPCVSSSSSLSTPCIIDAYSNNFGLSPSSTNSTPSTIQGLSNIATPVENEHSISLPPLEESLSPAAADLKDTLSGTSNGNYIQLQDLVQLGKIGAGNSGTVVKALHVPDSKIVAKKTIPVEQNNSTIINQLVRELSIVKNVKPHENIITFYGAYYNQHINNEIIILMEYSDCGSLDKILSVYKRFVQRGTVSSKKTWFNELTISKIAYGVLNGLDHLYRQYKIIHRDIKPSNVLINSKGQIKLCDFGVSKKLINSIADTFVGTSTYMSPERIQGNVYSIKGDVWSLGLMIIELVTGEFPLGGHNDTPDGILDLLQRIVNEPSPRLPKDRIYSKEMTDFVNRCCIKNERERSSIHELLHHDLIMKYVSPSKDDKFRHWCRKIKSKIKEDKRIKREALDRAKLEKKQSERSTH
Method: as §4, §2

[5] = system: pheromone response MAPK pathway; assay: Halo assay with α-factor disk; assay type: cell-based, Saccharomyces cerevisiae; conditions: wild-type yeast, exposure to α-factor
Text: as §1
Standard media and techniques were used for transformation, maintenance, and growth of yeast (Guthrie C, 1991). Halo assays were performed as described (Hoffman et al., 2002) using disks impregnated with 15 μg of α-factor. erg6 ? yeast were transformed with plasmids encoding IpaH9.8 or IpaH9.8-C337A and grown in selective media containing 1% raffinose to mid log phase. Following addition of MG132 (100 μM) and galactose (2%), cultures were incubated for 2 h and cell extracts were prepared as described (Wang et al., 2003). β-Galactosidase assays were performed as described (Guarente, 1983).

[6] = system: pheromone response pathway at or downstream of Ste11; assay: FUS1-HIS3 reporter growth of strain SY2625 with Ste11-4; assay type: cell-based, Saccharomyces cerevisiae; conditions: SY2625 with plasmid encoding Ste11-4; medium lacking histidine with 3-amino triazole
Text: To identify the target of IpaH9.8, yeast strains were used that were altered in the signalling cascade. […] The constitutively active variant of the MAPKKK Ste11 encoded by the allele STE11-4 promotes elevated transcription of pheromone responsive genes, even in the absence of pheromone (Stevenson et al., 1992). Growth of the strain SY2625 harbouring a FUS1-HIS3 pheromone-inducible reporter is dependent on signalling through the pheromone response pathway on a medium lacking histidine and containing 3-amino triazole (Evangelista et al., 1997). SY2625 containing a plasmid encoding Ste11-4, but not those containing the vector, were His^+, consistent with activation of the pathway by Ste11-4 and transcription of FUS1-HIS3. […] Upon phosphorylation by Ste11, Ste7 is ubiquitinated and, following removal of ubiquitin chains by the specific deubiquitinase Ubp3, is degraded by the proteasome (Wang et al., 2003).

PKN1 = target: T5, PKN1 (Homo sapiens, UniProt Q16512); assay: In vitro ubiquitination of PKN1; assay type: biochemical, mammalian; conditions: GST-PKN1, E1, native ubiquitin, UbcH5B; anti-PKN1 antibodies
T5 construct: purchased Invitrogen
T5 sequence (Q16512 whole entry): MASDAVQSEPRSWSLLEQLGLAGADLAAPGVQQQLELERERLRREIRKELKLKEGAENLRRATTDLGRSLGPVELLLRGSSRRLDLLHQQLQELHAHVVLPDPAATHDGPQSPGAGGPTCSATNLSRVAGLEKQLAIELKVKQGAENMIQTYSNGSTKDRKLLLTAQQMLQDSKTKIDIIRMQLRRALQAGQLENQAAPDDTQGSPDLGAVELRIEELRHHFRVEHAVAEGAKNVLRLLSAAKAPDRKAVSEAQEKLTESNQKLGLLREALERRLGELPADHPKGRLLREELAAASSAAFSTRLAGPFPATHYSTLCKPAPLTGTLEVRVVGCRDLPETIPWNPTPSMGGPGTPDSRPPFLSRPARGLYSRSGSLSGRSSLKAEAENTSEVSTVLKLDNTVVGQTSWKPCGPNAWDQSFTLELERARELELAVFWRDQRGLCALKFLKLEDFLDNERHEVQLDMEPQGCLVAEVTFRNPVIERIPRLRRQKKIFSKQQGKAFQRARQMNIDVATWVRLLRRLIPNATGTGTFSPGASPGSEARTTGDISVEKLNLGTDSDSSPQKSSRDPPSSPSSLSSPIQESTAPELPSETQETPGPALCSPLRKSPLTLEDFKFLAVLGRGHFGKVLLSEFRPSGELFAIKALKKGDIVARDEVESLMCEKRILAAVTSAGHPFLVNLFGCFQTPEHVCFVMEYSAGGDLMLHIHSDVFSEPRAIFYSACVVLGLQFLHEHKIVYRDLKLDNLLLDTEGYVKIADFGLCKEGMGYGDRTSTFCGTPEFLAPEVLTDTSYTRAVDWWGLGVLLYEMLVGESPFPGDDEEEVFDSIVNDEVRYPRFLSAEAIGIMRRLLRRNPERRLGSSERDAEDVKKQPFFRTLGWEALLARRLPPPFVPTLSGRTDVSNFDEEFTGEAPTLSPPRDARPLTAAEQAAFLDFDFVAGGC
Method: To test whether SspH1 shares activities with IpaH9.8, a GST-SspH1 recombinant protein was purified. […] Ubiquitination of PKN1 by SspH1; SspH1, IpaH9.8, or IpaH9.8-C337A was incubated with E1, native ubiquitin, UbcH5B, and GST-PKN1 was tested.
as §2

Molecule	rescue of growth arrest [1]	expression of FUS1-lacZ reporter gene [2]	removal of ubiquitin from ubiquitinated UbcH5B (UbcH5B)	polyubiquitination of HA-tagged ubiquitin (HA-tagged ubiquitin [3])	linkage of polyubiquitin chains (HA-tagged ubiquitin [4])	disappearance of Ste7 (MAPKK Ste7; ubp3Δ and ste11Δ cells)	amount of Ste7 (MAPKK Ste7; wild-type yeast, regardless of stimulation by α-factor)	growth of sst2Δ cells in the presence of pheromone (sst2Δ cells)	autoubiquitination (DTT-resistant ubiquitinated protein) (ubiquitin; biotinylated ubiquitin)	autoubiquitination (anti-IpaH antibodies) (ubiquitin; native ubiquitin, MAPK complexes)	ubiquitination of Ste7 (Ste7)	halo of inhibited growth [5]	His phenotype (FUS1-HIS3 reporter) [6]	ubiquitination of PKN1 (PKN1)
B1	rescued this phenotype	failed to form a halo and to induce expression	promoted the removal of ubiquitin from UbcH5B	detected a ladder of ubiquitinated proteins	catalyzed the formation of polyubiquitin chains on Lys-48, but not Lys-63	still resulted in the disappearance of Ste7	drastically reduced	allowed sst2Δ cells to grow in the presence of pheromone	a DTT-resistant ubiquitinated protein of the size of GST-IpaH9.8 (FIG. 3) was detected	Both the non- and mono-ubiquitinated forms of IpaH9.8 were detected	larger species that formed only in the presence of IpaH9.8 were detected	failed to form a halo	His^−	
B2														detected an additional species migrating at a size >250 kDa
